Measured values reported in patent US20090182306A1, “Microneedle Devices and Methods of Drug Delivery or Fluid Withdrawal” (Georgia Tech Research Corporation, priority 2006, published 2009).

Columns and labels:
[1] = In vivo delivery of human growth hormone in hairless rats; conditions: subcutaneous injection of 196 μg
Protocol: Microneedle devices were prepared as described in Example 3. The microneedles and base substrate were both made of CMC and, in some cases, 50% trehalose was included in the formulation too. Human growth hormone (Pfizer) was added to the microneedles at a content of 191-249 μg per 100-needle array. The ratio of growth hormone to matrix material (i.e., CMC or CMC plus trehalose) was 1 to 9. Microneedles were inserted into the skin of hairless rats (Charles River Laboratories). The microneedles inserted easily by hand and were left in place for 24 hours. Minimal skin irritation was seen after microneedle use. A positive control group was included, in which rats received subcutaneous injection of 196 μg of human growth hormone. Blood was drawn periodically and assayed using an ELISA kit specific for human growth hormone without cross-reactivity with rat growth hormone (Diagnostic Systems Laboratories, Webster, Tex.).

[2] = Lysozyme enzymatic activity (EnzCheck lysozyme assay kit) after encapsulation and storage; format: biochemical
Protocol: Enzymatic activity of lysozyme encapsulated within CMC microneedle devices was tested with EnzCheck lysozyme assay kit (Molecular Probes). Microneedle devices weighing 5 mg that contained lysozyme encapsulated at a concentration of 5 wt % were completely dissolved in PBS at room temperature for 10 min. PBS was added to dilute each sample to 0.05 μg/ml lysozyme and 0.95 μg/ml CMC. Lysozyme activity was assayed using 1 ml solution samples for: (1) untreated lysozyme, (2) untreated lysozyme (0.05 μg) and CMC hydrogel (0.95 μg) mixed, and dissolved together, (3) lysozyme encapsulated in microneedles that were dissolved 1 h after fabrication, and (4) lysozyme encapsulated in microneedles that were dissolved after 60 days of storage at ambient conditions.

[3] = Lysozyme secondary structure by circular dichroism after encapsulation and storage; format: physicochemical
Protocol: The secondary structure of the model drug lysozyme was examined by spectropolarimetry (JASCO, J-810, Tokyo, Japan) after encapsulation and release from dissolving microneedles produced in accordance with Example 3. CMC pyramidal microneedle devices weighing 5 mg that encapsulated lysozyme at a mass fraction of 5 wt % were completely dissolved in […] PBS at room temperature for 10 min and filtered by centrifugal filtration (Centricon YM-50, Millipore, Bedford, Mass., USA) at 1000×g and room temperature for 10 min to isolate lysozyme (14.3 kDa) from the dissolved CMC matrix material (90 kDa average molecular mass). After determining lysozyme concentration, PBS was added to dilute the lysozyme to 20 μg/ml. CD spectra were taken for (1) untreated lysozyme, (2) lysozyme encapsulated in microneedles that were dissolved 1 h after fabrication, (3) lysozyme encapsulated in microneedles that were dissolved after 60 days of storage at ambient conditions (23±2° C. and 38±5% relative humidity), and (4) lysozyme thermally treated at 80° C. for 30 min to cause irreversible denaturation.

Substance	time of serum concentration peak [1]	loss of enzymatic activity compared to untreated enzyme ([2]; encapsulated in microneedles, dissolved in PBS)	retained enzymatic activity ([2]; released from microneedles after two months of storage)	change in lysozyme activity ([2]; untreated lysozyme mixed with dissolved CMC microneedle containing no lysozyme)	protein structure (CD) ([3]; after storage of microneedle patches for 2 months at room temperature)	change in protein secondary structure (CD) ([3]; encapsulated in microneedle patch, then released by dissolution, versus untreated lysozyme)	secondary structure (CD), positive control ([3]; thermally treated at 80° C. for 30 min)
growth hormone: Human growth hormone (Pfizer)	within about one hour						
lysozyme: model drug (14.3 kDa) encapsulated at 5 wt % in CMC microneedle devices		no loss of enzymatic activity	96%	no change in lysozyme activity	unchanged	no detectable change	extensive degradation of secondary structure
